In US20210388110A1 (published 2021) one finds Kd data, which are given here for 34 molecules.

The target of one test is T1, soluble human CD3ε chain (human, UniProt P07766 23-126, limits assumed).
T1 construct: the text says soluble human CD3ε chain; also called human CD3 epsilon chain
The experiment in a line: SPR (Biacore).

The target of the next test is T2, soluble human GPC3 (human, UniProt P51654 25-563, limits assumed).
T2 construct: soluble human GPC3 as analyte; also called glypican 3
Nature of the test: SPR (Biacore), soluble human GPC3. For orientation: SPR reads the build-up and loss of mass on a sensor chip optically.

Positions count from the first letter of the chain named.

T2 sequence (P51654 other isoform, or with tags, fused parts or gaps limits assumed, form in doubt): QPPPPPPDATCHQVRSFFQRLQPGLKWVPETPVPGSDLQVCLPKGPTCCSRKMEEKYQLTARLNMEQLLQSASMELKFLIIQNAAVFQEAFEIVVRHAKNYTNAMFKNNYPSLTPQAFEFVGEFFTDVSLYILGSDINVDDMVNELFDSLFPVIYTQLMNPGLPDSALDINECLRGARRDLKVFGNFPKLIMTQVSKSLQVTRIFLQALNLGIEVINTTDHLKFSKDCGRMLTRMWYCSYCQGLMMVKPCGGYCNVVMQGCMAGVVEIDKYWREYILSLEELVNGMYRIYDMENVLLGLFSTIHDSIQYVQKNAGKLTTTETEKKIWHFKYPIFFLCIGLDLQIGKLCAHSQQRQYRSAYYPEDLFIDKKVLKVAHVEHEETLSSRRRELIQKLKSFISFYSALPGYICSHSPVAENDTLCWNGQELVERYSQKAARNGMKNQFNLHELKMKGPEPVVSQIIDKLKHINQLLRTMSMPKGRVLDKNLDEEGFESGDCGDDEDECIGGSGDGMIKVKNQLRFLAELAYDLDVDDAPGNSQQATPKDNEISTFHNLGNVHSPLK
T1 sequence (P07766 23-126 limits assumed): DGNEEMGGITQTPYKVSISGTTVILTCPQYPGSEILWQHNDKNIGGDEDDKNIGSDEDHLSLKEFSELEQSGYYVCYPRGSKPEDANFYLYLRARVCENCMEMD

B1: TR01H040-E22Hh/none-Hi-Kn010G3/L0000-k0 (antibody, human IgG1, kappa, L234A L235A, N297A)
heavy: QVQLVESGGGLVQPGRSLRLSCAASGFTFSNAWMHWVRQAPGKGLEWVAQIKDKSQNYATYYAESVKGRFTISRADSKNSIYLQMNSLKTEDTAVYYCRYVHYSASYGVDAWGQGTTVTVSSASTKGPSVFPLAPSSKSTSGGTAALGCLVKDYFPEPVTVSWNSGALTSGVHTFPAVLQSSGLYSLSSVVTVPSSSLGTQTYICNVNHKPSNTKVDKKVEPKSCDKTHTCPPCPAPEAAGGPSVFLFPPKPKDTLMISRTPEVTCVVVDVSHEDPEVKFNWYVDGVEVHNAKTKPREEQYASTYRVVSVLTVLHQDWLNGKEYKCKVSNKALPAPIEKTISKAKGQPREPQVYTLPPSRCELTKNQVSLSCAVKGFYPSDIAVEWESNGQPENNYKTTPPVLDSDGSFFLVSKLTVDKSRWQQGNVFSCSVMHEALHNHYTQKSLSLSPDYKDDDDK
chain: EPKSSDKTHTCPPCPAPELLGGPSVFLFPPKPKDTLMISRTPEVTCVVVDVSHEDPEVKFNWYVDGVEVHNAKTKPREEQYNSTYRVVSVLTVLHQDWLNGKEYKCKVSNKALPAPIEKTISKAKGQPREPQVCTLPPSRDELTKNQVSLWCLVKGFYPSDIAVEWESNGQPENNYKTTPPVLDSDGSFFLYSKLTVDKSRWQQGNVFSCSVMHEALHNRYTQKSLSLSP
light: DIVMTQSPLSLPVTPGEPASISCRSSQSLVHSNRNTYLHWYQQKPGQAPRLLIYKVSNRFSGVPDRFSGSGSGTDFTLKISRVEAEDVGVYYCGQGTQVPYTFGQGTKLEIKRTVAAPSVFIFPPSDEQLKSGTASVVCLLNNFYPREAKVQWKVDNALQSGNSQESVTEQDSKDSTYSLSSTLTLSKADYEKHKVYACEVTHQGLSSPVTKSFNRGEC
notes: single-arm
A word on the Kd: it is the equilibrium constant for the complex coming apart. The low end stands for a tighter complex, the high end for a looser complex. In the test with soluble human CD3ε chain, B1 showed a Kd of 36 nM.

B2: H0610-G1dh/none-Hi-Kn010G3/L0000vk1-k0 (antibody, human IgG1, kappa)
heavy: not shown
chain: B1 chain
light: DIQMTQSPSSLSASVGDRVTITCRSSQSLVHSNRNTYLHWYQQKPGKAPKLLIYKVSNRFSGVPSRFSGSGSGTDFTFTISSLQPEDIATYYCGQGTQVPYTFGQGTKVEIKRTVAAPSVFIFPPSDEQLKSGTASVVCLLNNFYPREAKVQWKVDNALQSGNSQESVTEQDSKDSTYSLSSTLTLSKADYEKHKVYACEVTHQGLSSPVTKSFNRGEC
notes: single-arm (one Fab)
In the test with soluble human GPC3, B2 returned a Kd of 2.16 nM.

B3: CE115HA252-E22Hh//-Hi-Kn010G3/L0000-k0 (antibody, human IgG1, kappa, L234A L235A, N297A)
heavy: B1 heavy with L11V, D53A, Q56N, A59K, T60K, A75D, I81L, S104Y, A105Y, S106Y
chain: B1 chain
light: B1 light
notes: single-arm
B3 registered a Kd with soluble human CD3ε chain of 9.48 nM.

B4: H0610-G1dh/none-Hi-Kn010G3/TR01L011-k0 (antibody, human IgG1, kappa)
heavy: not shown
chain: B1 chain
light: B1 light with R24Q, S25A, Q27E, S61R, L109V, K112E
notes: single-arm (one Fab)
As to B4, binding with soluble human GPC3 was put at a Kd of 4.02 nM.

B5: H0610-G1dh/none-Hi-Kn010G3/L0269-k0 (antibody, human IgG1, kappa)
heavy: not shown
chain: B1 chain
light: B1 light with L29P, L38I, H39Q
notes: single-arm (one Fab)
Molecule B5 registered a Kd with soluble human GPC3 of 0.459 nM.

B6: TR01H007-E22Hh/none-Hi-Kn010G3/L0000-k0 (antibody, human IgG1, kappa, L234A L235A, N297A)
heavy: B1 heavy with D53S, Q56N, S104G, S106Y, A111I
chain: B1 chain
light: B1 light
notes: single-arm
Turning to B6, binding with soluble human CD3ε chain was put at a Kd of 21.7 nM.

B7: H0610-G1dh/none-Hi-Kn010G3/TR01L012-k0 (antibody, human IgG1, kappa)
heavy: not shown
chain: B1 chain
light: B1 light with Q42L, A48S, R50Q, S61R, L109V, K112E
notes: single-arm (one Fab)
Molecule B7 gave a Kd with soluble human GPC3 of 4.25 nM.

B8: H0610-G1dh/none-Hi-Kn010G3/TR01L009-k0 (antibody, human IgG1, kappa)
heavy: not shown
chain: B1 chain
light: B1 light with Q42L, A48S, R50Q, S61R
notes: single-arm (one Fab)
The molecule B8 returned a Kd in the test with soluble human GPC3 of 3.81 nM.

B9: H0610-G1dh/none-Hi-Kn010G3/TR01L015-k0 (antibody, human IgG1, kappa)
heavy: not shown
chain: B1 chain
light: B1 light with L29P, Q42L, A48S, R50Q
notes: single-arm (one Fab)
For the molecule B9, binding with soluble human GPC3 was put at a Kd of 2.16 nM.

B10: TR01H006-E22Hh/none-Hi-Kn010G3/L0000-k0 (antibody, human IgG1, kappa, L234A L235A, N297A)
heavy: B1 heavy with D53A, S104G, S106Y, A111I
chain: B1 chain
light: B1 light
notes: single-arm
In the case of B10, in the test with soluble human CD3ε chain, the Kd is 23 nM.

B11: TR01H012-E22Hh/none-Hi-Kn010G3/L0000-k0 (antibody, human IgG1, kappa, L234A L235A, N297A)
heavy: B1 heavy with D53A, Q56N, S104Y, A105Y, A111I
chain: B1 chain
light: B1 light
notes: single-arm
Consider B11, for which binding with soluble human CD3ε chain was put at a Kd of 7.94 nM.

B12: H0610-G1dh/none-Hi-Kn010G3/TR01L019-k0 (antibody, human IgG1, kappa)
heavy: not shown
chain: B1 chain
light: B1 light with R24Q, S25A, Q27E, L29P, Q42L, A48S, R50Q, G94Y
notes: single-arm (one Fab)
Molecule B12 came in with a Kd in the test with soluble human GPC3 of 1.15 nM.

B13: TR01H003-E22Hh//-Hi-Kn010G3/L0000-k0 (antibody, human IgG1, kappa, L234A L235A, N297A)
heavy: B1 heavy with L11V, D53A, Q56N, A75D, I81L, Y100R, S104G, S106Y
chain: B1 chain
light: B1 light
notes: single-arm
Consider B13, for which the Kd in the test with soluble human CD3ε chain was 40.3 nM.

B14: CE115HA192-E22Hh//-Hi-Kn010G3/L0000-k0 (antibody, human IgG1, kappa, L234A L235A, N297A)
heavy: B1 heavy with L11V, D53A, Q56N, A75D, I81L, S104Y, S106Y
chain: B1 chain
light: B1 light
notes: single-arm
For the molecule B14, in the test with soluble human CD3ε chain, the Kd was 50.5 nM.

B15: TR01H013-E22Hh/none-Hi-Kn010G3/L0000-k0 (antibody, human IgG1, kappa, L234A L235A, N297A)
heavy: B1 heavy with D53G, S104G, S106Y, A111I
chain: B1 chain
light: B1 light
notes: single-arm
The molecule B15 yielded a Kd with soluble human CD3ε chain of 49.4 nM.

B16: TR01H014-E22Hh/none-Hi-Kn010G3/L0000-k0 (antibody, human IgG1, kappa, L234A L235A, N297A)
heavy: B1 heavy with D53G, Q56N, E64P, S104G, S106Y, A111I
chain: B1 chain
light: B1 light
notes: single-arm
B16 had a Kd with soluble human CD3ε chain of 38.7 nM.

B17: TR01H015-E22Hh/none-Hi-Kn010G3/TR01L005-k0 (antibody, human IgG1, kappa, L234A L235A, N297A)
heavy: B1 heavy with D53G, Q56N, A111I
chain: B1 chain
light: B1 light with Q42L, A48S, R50Q, L109V, K112E
notes: single-arm
Regarding B17, in the test with soluble human CD3ε chain, the Kd turned out to be 65.3 nM.

B18: H0610-G1dh/none-Hi-Kn010G3/TR01L017-k0 (antibody, human IgG1, kappa)
heavy: not shown
chain: B1 chain
light: B1 light with L29P, L38I, H39Q, Q42L, A48S, R50Q, G94Y
notes: single-arm (one Fab)
Regarding B18, in the test with soluble human GPC3, the affinity, expressed as Kd, was 0.00827 nM.

B19: H0610-G1dh/none-Hi-Kn010G3/TR01L016-k0 (antibody, human IgG1, kappa)
heavy: not shown
chain: B1 chain
light: B1 light with L29P, Q42L, A48S, R50Q, G94Y
notes: single-arm (one Fab)
On to B19, for which the Kd with soluble human GPC3 worked out at 1.08 nM.

B20: H0610-G1dh/none-Hi-Kn010G3/TR01L020-k0 (antibody, human IgG1, kappa)
heavy: not shown
chain: B1 chain
light: B1 light with R24Q, S25A, Q27E, L29P, L38I, H39Q, Q42L, A48S, R50Q, G94Y
notes: single-arm (one Fab)
With B20, in the test with soluble human GPC3, the Kd is 0.0224 nM.

B21: CE115HA121-E22Hh//-Hi-Kn010G3/L0000-k0 (antibody, human IgG1, kappa, L234A L235A, N297A)
heavy: B1 heavy with L11V, Q50L, D53A, Q56N, A75D, I81L, S104G, S106Y
chain: B1 chain
light: B1 light
notes: single-arm
As to B21, the affinity in the test with soluble human CD3ε chain, expressed as Kd, was 67.6 nM.

B22: TR01H015-E22Hh/none-Hi-Kn010G3/TR01L003-k0 (antibody, human IgG1, kappa, L234A L235A, N297A)
heavy: B1 heavy with D53G, Q56N, A111I
chain: B1 chain
light: B1 light with L109V, K112E
notes: single-arm
Regarding B22, in the test with soluble human CD3ε chain, the affinity, expressed as Kd, was 63.4 nM.

B23: TR01H015-E22Hh/none-Hi-Kn010G3/L0000-k0 (antibody, human IgG1, kappa, L234A L235A, N297A)
heavy: B1 heavy with D53G, Q56N, A111I
chain: B1 chain
light: B1 light
notes: single-arm
Consider B23, for which, in the test with soluble human CD3ε chain, binding was put at a Kd of 61.3 nM.

B24: TR01H017-E22Hh/none-Hi-Kn010G3/L0000-k0 (antibody, human IgG1, kappa, L234A L235A, N297A)
heavy: B1 heavy with R16G, D53A, Q56N, S104G, S106Y, A111I
chain: B1 chain
light: B1 light
notes: single-arm
As for B24, the Kd with soluble human CD3ε chain came to 35 nM.

B25: TR01H018-E22Hh/none-Hi-Kn010G3/L0000-k0 (antibody, human IgG1, kappa, L234A L235A, N297A)
heavy: B1 heavy with R16G, D53G, Q56N, A111I
chain: B1 chain
light: B1 light
notes: single-arm
B25 showed a Kd with soluble human CD3ε chain of 69.3 nM.

B26: TR01H019-E22Hh/none-Hi-Kn010G3/L0000-k0 (antibody, human IgG1, kappa, L234A L235A, N297A)
heavy: B1 heavy with D53G, A111I
chain: B1 chain
light: B1 light
notes: single-arm
The molecule B26 displayed a Kd with soluble human CD3ε chain of 68.5 nM.

B27: H0610-G1dh/none-Hi-Kn010G3/TR01L010-k0 (antibody, human IgG1, kappa)
heavy: not shown
chain: B1 chain
light: B1 light with S61R, L109V, K112E
notes: single-arm (one Fab)
B27: in the test with soluble human GPC3, the Kd amounted to 2.92 nM.

B28: CE115HA251-E22Hh//-Hi-Kn010G3/L0000-k0 (antibody, human IgG1, kappa, L234A L235A, N297A)
heavy: B1 heavy with L11V, D53A, Q56N, A75D, I81L, S104Y, A105Y, S106Y
chain: B1 chain
light: B1 light
notes: single-arm
B28 had a Kd with soluble human CD3ε chain of 22.3 nM.

B29: H0610-G1dh/none-Hi-Kn010G3/L0268-k0 (antibody, human IgG1, kappa)
heavy: not shown
chain: B1 chain
light: B1 light with L29P, L38I, H39Q, G94V
notes: single-arm (one Fab)
Turning to B29, in the test with soluble human GPC3, the Kd was 0.0169 nM.

B30: H0610-G1dh/none-Hi-Kn010G3/TR01L018-k0 (antibody, human IgG1, kappa)
heavy: not shown
chain: B1 chain
light: B1 light with R24Q, S25A, Q27E, L29P, Q42L, A48S, R50Q
notes: single-arm (one Fab)
For B30, in the test with soluble human GPC3, the Kd is 2.17 nM.

B31: TR01H015-E22Hh/none-Hi-Kn010G3/TR01L001-k0 (antibody, human IgG1, kappa, L234A L235A, N297A)
heavy: B1 heavy with D53G, Q56N, A111I
chain: B1 chain
light: B1 light with R24Q, S25A, Q27E
notes: single-arm
Turning to B31, binding in the test with soluble human CD3ε chain was characterised by a dissociation constant (Kd) of 65.6 nM.

B32: TR01H016-E22Hh/none-Hi-Kn010G3/L0000-k0 (antibody, human IgG1, kappa, L234A L235A, N297A)
heavy: B1 heavy with D53G, Q56N, A105Y, A111I
chain: B1 chain
light: B1 light
notes: single-arm
The molecule B32 registered a Kd with soluble human CD3ε chain of 36.9 nM.

B33: H0610-G1dh/none-Hi-Kn010G3/TR01L008-k0 (antibody, human IgG1, kappa)
heavy: not shown
chain: B1 chain
light: B1 light with R24Q, S25A, Q27E, S61R
notes: single-arm (one Fab)
Consider B33, for which, in the test with soluble human GPC3, the Kd was determined as 3.48 nM.

B34: TR01H020-E22Hh/none-Hi-Kn010G3/L0000-k0 (antibody, human IgG1, kappa, L234A L235A, N297A)
heavy: B1 heavy with D53G, Q56N, E64P, A111I
chain: B1 chain
light: B1 light
notes: single-arm
B34 yielded a dissociation constant (Kd) in the test with soluble human CD3ε chain of 64.8 nM.
